In patent US20240216513A1, “FATTY ACID-BIFUNCTIONAL DEGRADER CONJUGATES AND THEIR METHODS OF USE” (Novartis AG, priority 2021, published 2024):

Experiments:
[1] = target: T1, BTK C481S (Homo sapiens, UniProt Q06187, C481S); test: PD screen in TMD8 BTK C481S mutant tumor-bearing mice, BTK levels and compound concentrations in blood and tumor; format: in vivo, mouse; settings: 25 umol/kg
T1 construct: endogenous in cells; host or cells: TMD8 BTK C481S mutant tumour xenografts in mice
Experimental: All animal studies were conducted in accordance with ethics and procedures covered by permit nos. BS-1975 issued by the Kantonales Veterinäramt Basel-Stadt and in strict adherence to guidelines of the Eidgenössisches Tierschutzgesetz and the Eidgenössische Tierschutzverordnung, Switzerland. All animals had access to food and water ad libitum and were identified with transponders. They were housed in a specific pathogen-free facility with a 12-h light/12-h dark cycle. For PD screen experiments in TMD8 BTK C481S mutant tumor-bearing mice, FAC was injected once. Animals were randomized into groups of 2 and tissue samples collected at day 0, 4, 7 and in some studies day 10 as well. Blood samples were collected and tumors were excised, weighed, frozen in liquid nitrogen and cryogenic dry pulverized with the CryoPrep™ system (model CP-02, Covaris). Concentrations of compounds in blood and tumors were determined by UPLC/MS-MS and BTK levels were analyzed by Meso Scale Discovery.

[2] = BTK FAC plasma stability assay, PBS buffer arm; format: physicochemical; settings: for Plasma stability (h) PBS: incubation to 24 h
Procedure, shortened: (§1)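 Compound from a 500 µM acetonitrile:water working solution was spiked into K3-EDTA plasma or Dulbecco's PBS and incubated with shaking at 38 °C. Samples taken at 0, 2, 6 and 24 h were precipitated with cold acetonitrile containing glyburide internal standard. Semi-quantitative LC-MS/MS used analyte:internal standard peak area ratios.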

[3] = BTK FAC plasma stability assay, rat plasma; format: in vitro ADME; settings: for Plasma stability (h) rat: incubation to 24 h
Procedure, shortened: as §1

[4] = BTK FAC plasma stability assay, mouse plasma; format: in vitro ADME; settings: for Plasma stability (h) mouse: incubation to 24 h
Procedure, shortened: as §1

[5] = BTK FAC plasma stability assay, dog plasma; format: in vitro ADME
[6] = BTK FAC plasma stability assay, cyno plasma; format: in vitro ADME, cynomolgus monkey

T1 sequence (Q06187 whole entry C481S): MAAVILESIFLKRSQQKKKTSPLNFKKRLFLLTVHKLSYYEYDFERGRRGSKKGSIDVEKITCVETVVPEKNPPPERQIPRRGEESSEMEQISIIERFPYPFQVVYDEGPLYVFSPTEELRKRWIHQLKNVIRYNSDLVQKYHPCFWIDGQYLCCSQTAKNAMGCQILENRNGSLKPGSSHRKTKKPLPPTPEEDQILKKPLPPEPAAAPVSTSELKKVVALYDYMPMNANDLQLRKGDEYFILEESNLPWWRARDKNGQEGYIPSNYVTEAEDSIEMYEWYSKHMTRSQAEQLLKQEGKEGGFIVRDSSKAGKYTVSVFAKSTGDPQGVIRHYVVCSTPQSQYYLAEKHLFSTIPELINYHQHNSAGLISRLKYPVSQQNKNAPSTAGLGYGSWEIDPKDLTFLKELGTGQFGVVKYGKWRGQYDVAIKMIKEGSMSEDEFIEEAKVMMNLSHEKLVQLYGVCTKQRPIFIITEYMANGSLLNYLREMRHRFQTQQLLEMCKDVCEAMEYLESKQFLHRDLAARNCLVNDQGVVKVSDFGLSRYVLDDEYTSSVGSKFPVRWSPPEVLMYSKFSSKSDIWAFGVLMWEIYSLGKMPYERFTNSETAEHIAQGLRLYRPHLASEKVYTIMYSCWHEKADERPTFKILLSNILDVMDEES

For CCCCCCCCCCCN(C(=O)CCCCCCCCCC(=O)O)C(CCC(=O)NCCOCCOCCOCCOCCOCCOCCOCCOCCOCCOCCOCCOCCC(=O)N[C@@H](C)C(=O)OC(C)(C)c1ccc(C(=O)Nc2cc(F)cc(-c3ncnc4[nH]c(-c5ccc(CCN6CCC7(CC6)CCN(C(=O)c6ccc(OC)c(N8CCC(=O)NC8=O)c6)CC7)cc5)cc34)c2C)c(F)c1)C(=O)O (stereo partly drawn) [Example A16, (5S)-50-Carboxy-2-(4-((3-(6-(4-(2-(9-(3-(2,4-dioxotetrahydropyrimidin-1(2H)-yl)-4-methoxybenzoyl)-3,9-diazaspiro[5.5]undecan-3-yl)ethyl)phenyl)-7H-pyrrolo[2,3-d]pyrimidin-4-yl)-5-fluoro-2-methylphenyl)carbamoyl)-3-fluorophenyl)-2,5-dimethyl-4,7,47,52-tetraoxo-51-undecyl-3,10,13,16,19,22,25,28,31,34,37,40,43-tridecaoxa-6,46,51-triazadohexacontan-62-oic acid], the “Duration of BTK degradation in mouse ≥90%” value (“Duration … in mouse ≥90%” for short) ([1]; i.v.) was 4 days, the “% Release of degrader after 24 h PBS” value [2] was 2% and the “Plasma stability (h) PBS” value [2] was over 48 h. The “% Release of degrader after 24 h rat” value [3] was 11%, the “Plasma stability (h) rat” value [3] was over 48 h and the “% Release of degrader after 24 h mouse” value [4] was 1.9%. For the same compound, the “Plasma stability (h) mouse” value [4] was over 48 h, the “Plasma stability (h) dog” value [5] was 31.2 h and the “% Release of degrader after 24 h dog” value [5] was 5%.
In the case of CCCCCCCCCCCN(C(=O)CCCCCCCCCC(=O)O)C(CCC(=O)NCCOCCOCCOCCOCCOCCOCCOCCOCCOCCOCCOCCOCCC(=O)NCC(=O)NCN(C(=O)c1ccc(C(C)(C)O)cc1F)c1cc(F)cc(-c2ncnc3[nH]c(-c4ccc(CCN5CCC6(CC5)CCN(C(=O)c5ccc(OC)c(N7CCC(=O)NC7=O)c5)CC6)cc4)cc23)c1C)C(=O)O (centres unmarked) [Example A36, 51-Carboxy-2-(3-(6-(4-(2-(9-(3-(2,4-dioxotetrahydropyrimidin-1(2H)-yl)-4-methoxybenzoyl)-3,9-diazaspiro[5.5]undecan-3-yl)ethyl)phenyl)-7H-pyrrolo[2,3-d]pyrimidin-4-yl)-5-fluoro-2-methylphenyl)-1-(2-fluoro-4-(2-hydroxypropan-2-yl)phenyl)-1,5,8,48,53-pentaoxo-52-undecyl-11,14,17,20,23,26,29,32,35,38,41,44-dodecaoxa-2,4,7,47,52-pentaazatrihexacontan-63-oic acid], the “Duration … in mouse ≥90%” value ([1]; i.v.) is reported as 10 days, the “% Release of degrader after 24 h PBS” value [2] is reported as 0% and the “Plasma stability (h) PBS” value [2] is reported as over 48 h. The “% Release of degrader after 24 h rat” value [3] was 0%, the “Plasma stability (h) rat” value [3] was over 48 h and the “% Release of degrader after 24 h mouse” value [4] was 0.7%. The “Plasma stability (h) mouse” value [4] was 38.6 h, the “Plasma stability (h) dog” value [5] was over 48 h and the “% Release of degrader after 24 h dog” value [5] was 0%.
For CCCCCCCCCCCN(C(=O)CCCCCCCCCC(=O)O)[C@@H](CCC(=O)NCCOCCOCCOCCOCCOCCOCCOCCOCCOCCOCCOCCOCCC(=O)N(CCC(=O)OC(C)(C)c1ccc(C(=O)Nc2cc(F)cc(-c3ncnc4[nH]c(-c5ccc(CCN6CCC7(CC6)CCN(C(=O)c6ccc(OC)c(N8CCC(=O)NC8=O)c6)CC7)cc5)cc34)c2C)c(F)c1)CC(=O)O)C(=O)O [Example A24, (S)-2-(3-((2-(4-((3-(6-(4-(2-(9-(3-(2,4-Dioxotetrahydropyrimidin-1(2H)-yl)-4-methoxybenzoyl)-3,9-diazaspiro[5.5]undecan-3-yl)ethyl)phenyl)-7H-pyrrolo[2,3-d]pyrimidin-4-yl)-5-fluoro-2-methylphenyl)carbamoyl)-3-fluorophenyl)propan-2-yl)oxy)-3-oxopropyl)-3,43,48-trioxo-47-undecyl-6,9,12,15,18,21,24,27,30,33,36,39-dodecaoxa-2,42,47-triazaheptapentacontane-1,46,57-tricarboxylic acid], the “Duration … in mouse ≥90%” value ([1]; i.v.) was 10 days, the “Duration … in mouse ≥90%” value ([1]; s.c.) was 10 days and the “% Release of degrader after 24 h PBS” value [2] was 2.8%. The “Plasma stability (h) PBS” value [2] was over 48 h, the “% Release of degrader after 24 h rat” value [3] was 7.2% and the “Plasma stability (h) rat” value [3] was over 48 h. The “% Release of degrader after 24 h mouse” value [4] was 7.4%, the “Plasma stability (h) mouse” value [4] was over 48 h and the “Plasma stability (h) dog” value [5] was over 48 h. The “% Release of degrader after 24 h dog” value [5] was 5.9%.
With CCCCCCCCCCCN(C(=O)CCCCCCCCCC(=O)O)C(CCC(=O)NCCOCCOCCOCCOCCOCCOCCOCCOCCOCCOCCOCCOCCC(=O)NCc1cc(C(=O)OC(C)(C)c2ccc(C(=O)Nc3cc(F)cc(-c4ncnc5[nH]c(-c6ccc(CCN7CCC8(CC7)CCN(C(=O)c7ccc(OC)c(N9CCC(=O)NC9=O)c7)CC8)cc6)cc45)c3C)c(F)c2)ccn1)C(=O)O (centres unmarked) [Example A26, 46-Carboxy-1-(4-(((2-(4-((3-(6-(4-(2-(9-(3-(2,4-dioxotetrahydropyrimidin-1(2H)-yl)-4-methoxybenzoyl)-3,9-diazaspiro[5.5]undecan-3-yl)ethyl)phenyl)-7H-pyrrolo[2,3-d]pyrimidin-4-yl)-5-fluoro-2-methylphenyl)carbamoyl)-3-fluorophenyl)propan-2-yl)oxy)carbonyl)pyridin-2-yl)-3,43,48-trioxo-47-undecyl-6,9,12,15,18,21,24,27,30,33,36,39-dodecaoxa-2,42,47-triazaoctapentacontan-58-oic acid] the “Duration … in mouse ≥90%” value ([1]; i.v.) was 7 days, the “% Release of degrader after 24 h PBS” value [2] was 7% and the “Plasma stability (h) PBS” value [2] was over 48 h. The “% Release of degrader after 24 h rat” value [3] was 7.6%, the “Plasma stability (h) rat” value [3] was over 48 h and the “% Release of degrader after 24 h mouse” value [4] was 20.4%. The “Plasma stability (h) mouse” value [4] was 30.5 h, the “Plasma stability (h) dog” value [5] was 39.2 h and the “% Release of degrader after 24 h dog” value [5] was 10.9%.
In the case of CCCCCCCCCCCN(C(=O)CCCCCCCCCC(=O)O)C(CCC(=O)NCCOCCOCCOCCOCCOCCOCCOCCOCCOCCOCCOCCOCCC(=O)N1CCN(CC(=O)OC(C)(C)c2ccc(C(=O)Nc3cc(F)cc(-c4ncnc5[nH]c(-c6ccc(CCN7CCC8(CC7)CCN(C(=O)c7ccc(OC)c(N9CCC(=O)NC9=O)c7)CC8)cc6)cc45)c3C)c(F)c2)CC1)C(=O)O (centres unmarked) [Example A22, 44-Carboxy-1-(4-(2-((2-(4-((3-(6-(4-(2-(9-(3-(2,4-dioxotetrahydropyrimidin-1(2H)-yl)-4-methoxybenzoyl)-3,9-diazaspiro[5.5]undecan-3-yl)ethyl)phenyl)-7H-pyrrolo[2,3-d]pyrimidin-4-yl)-5-fluoro-2-methylphenyl)carbamoyl)-3-fluorophenyl)propan-2-yl)oxy)-2-oxoethyl)piperazin-1-yl)-1,41,46-trioxo-45-undecyl-4,7,10,13,16,19,22,25,28,31,34,37-dodecaoxa-40,45-diazahexapentacontan-56-oic acid], the “% Release of degrader after 24 h PBS” value [2] is reported as 1.3%, the “Plasma stability (h) PBS” value [2] is reported as over 48 h and the “% Release of degrader after 24 h rat” value [3] is reported as 1.4%. For the same compound, the “Plasma stability (h) rat” value [3] was over 48 h, the “% Release of degrader after 24 h mouse” value [4] was 2.3% and the “Plasma stability (h) mouse” value [4] was over 48 h. For the same compound, the “Plasma stability (h) dog” value [5] was over 48 h, the “% Release of degrader after 24 h dog” value [5] was 1.6% and the “Plasma stability (h) cyno” value [6] was over 48 h. The “% Release of degrader after 24 h cyno” value ([6]; 24 h) was 1.2%.
